The values that follow come from publication PMC2908537.

Holding throughout (assay): SPR; WT or point-mutant CRT immobilised on a biosensor chip at about 500 RU by primary amine coupling, SE 15mer peptides run as analyte; read-out RU, mean ± SEM; 25°C, 10 mM HEPES pH 7.4, 50 mM KCl, 0.5 mM CaCl2, 100 µM ZnCl2, 0.005% surfactant P-20, flow 10 µl/min
(In general: Surface plasmon resonance follows binding to a sensor surface in real time, without labels.)

Assay [1] addresses CRT D220A mutant, 6xHis-tagged (not stated (rabbit or mouse cDNA cloned)) (UniProt P14211).
Assay [2] concerns the target wild-type CRT, 6xHis-tagged, from the pBAD vector (not stated (rabbit or mouse cDNA cloned)) (UniProt P14211).
Assay [3] concerns the target CRT N279A mutant, 6xHis-tagged (not stated (rabbit or mouse cDNA cloned)) (UniProt P14211).
Assay [4] has as its target CRT H224A mutant, 6xHis-tagged (not stated (rabbit or mouse cDNA cloned)) (UniProt P14211).
Assay [5] deals with CRT E217A mutant, 6xHis-tagged (not stated (rabbit or mouse cDNA cloned)) (UniProt P14211).
Assay [6] concerns the target CRT E223A mutant, 6xHis-tagged (not stated (rabbit or mouse cDNA cloned)) (UniProt P14211).
For assay [7], the target named is CRT Y254A mutant, 6xHis-tagged (not stated (rabbit or mouse cDNA cloned)) (UniProt P14211).

For the substance “SE-expressing 15mer synthetic peptide 65-79*0404”, the RU in assay [1] came out at 120 RU; in assay [2] it was 128 RU; in assay [3] it was 145 RU; in assay [4], 128 RU; in assay [5], 106 RU; in assay [6] it was 84.6 RU. Further, the RU in assay [7] stood at 113 RU.
Regarding “SE-expressing 15mer synthetic peptide 65-79*0401”, the RU in assay [1] is 70.1 RU; in assay [2], 71.2 RU; in assay [3], 106 RU; in assay [4], 68.2 RU; in assay [5], 50.9 RU; in assay [6] it was 56.7 RU. The RU in assay [7] amounted to 66.5 RU.
